Sequences and labels used below:
T1: recombinant his-tagged human Cad-11 (R&D Systems) (human, UniProt P55287 54-617)
T1 construct: bought; also called rhCad-11; recombinant human Cad-11; not shown: his tag
T1 sequence: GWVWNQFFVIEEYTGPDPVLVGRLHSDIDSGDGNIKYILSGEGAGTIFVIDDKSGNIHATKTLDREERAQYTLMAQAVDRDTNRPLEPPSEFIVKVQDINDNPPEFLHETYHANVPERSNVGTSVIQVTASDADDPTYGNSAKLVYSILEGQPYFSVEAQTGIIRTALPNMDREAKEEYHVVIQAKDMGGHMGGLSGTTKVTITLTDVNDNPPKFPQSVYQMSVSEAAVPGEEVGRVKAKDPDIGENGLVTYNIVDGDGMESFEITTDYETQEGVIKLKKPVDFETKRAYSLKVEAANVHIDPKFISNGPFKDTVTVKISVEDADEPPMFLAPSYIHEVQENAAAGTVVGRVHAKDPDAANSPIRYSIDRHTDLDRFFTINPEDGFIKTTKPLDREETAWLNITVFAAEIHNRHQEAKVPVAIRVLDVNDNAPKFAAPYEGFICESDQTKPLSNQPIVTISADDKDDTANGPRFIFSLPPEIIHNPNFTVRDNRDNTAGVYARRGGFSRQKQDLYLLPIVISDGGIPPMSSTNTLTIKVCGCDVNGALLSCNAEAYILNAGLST

T2: recombinant Cad-11 EC1 human IgG1 fusion protein (R&D Systems Cat. No. 1790-CA-050) (human, UniProt P55287 54-617, limits assumed)
T2 construct: bought; also called recombinant human Cad-11 EC1; recombinant human Cad-11 fusion protein; not shown: human IgG1 part
T2 sequence: T1 sequence

B1: SDP051 humanized anti-Cad-11 EC1 antibody (Vκ1/VH5) (antibody, IgG4, V domains shown)
VH: EVQLVQSGAEVKKPGASVKVSCKASGYSFTGYFMNWVRQAPGQGLEWIGRINPYTGDTFYNQKFKGRVTITVDKSTSTAYMELSSLRSEDTAVYYCGRLGSRYWYFDVWGQGTTVTVSS
VL: DVLMTQTPLSSPVTLGQPASISCRSSQSIIHSNGNTYLEWYLQKPGQSPQLLIYKVSNRFSGVPDRFTGSGSGTDFTLKISRVEAEDVGVYYCFQGSHVPWTFGQGTKLEIK
notes: humanized IgG4 (S241P), kappa
B2: SDP061 humanized anti-Cad-11 EC1 antibody (Vκ2/VH1) (antibody, IgG4, V domains shown)
VH: EVQLVQSGPELKKPGASVKISCKASGYSFTGYFMNWVKQAHGQGLEWIGRINPYTGDTFYNQKFKGRATLTVDKSSSTAYMELVSLSSEDSAVYYCGRLGSRYWYFDVWGQGTTVTVSS
VL: B1 VL with T68S
notes: humanized IgG4 (S241P), kappa
B3: SDP071 humanized anti-Cad-11 EC1 antibody (Vκ2/VH2) (antibody, IgG4, V domains shown)
VH: B1 VH with V20I, R38K, V68A, I70L
VL: B1 VL with T68S
notes: humanized IgG4 (S241P), kappa
B4: Cad-7 37-mer peptide linked to BSA (peptide, UniProt Q9ULB5 48-84, looked up)
peptide: SWVWNQFFVLEEYMGSDPLYVGKLHSDVDKGDGSIKY
modifications: also: linked to BSA
notes: also called Cad-7 antigen; Cad-7 peptide
B5: Cad-9 37-mer peptide linked to BSA (peptide, UniProt Q9ULB4 54-90, looked up)
peptide: GWMWNQFFLLEEYTGTDTQYVGKLHTDQDKGDGNLKY
modifications: also: linked to BSA
notes: also called Cad-9 antigen; Cad-9 peptide

The target of assay [1] is T1, recombinant his-tagged human Cad-11 …. In words: SPR, rhCad-11 immobilized, SDP051 as analyte, 2-state reaction model; kd1. Here is the method:
(§1) To determine the affinity of SDP051 for recombinant his-tagged human Cad-11, rhCad-11 (R&D Systems) was immobilized to the chip at a single concentration, high resolution kinetics were determined for SDP051, and a 2-state reaction binding model was successfully fitted to the kinetic data.
(§2) Kinetic data were obtained at a flow rate of 40 μL/min to minimize any potential mass transfer effects. An analyte concentration series ranging from 12.5 nM to 0.195 nM was prepared by serial dilution. Two repeats of the blank (no mAb) and the 3.125 nM (first and last cycle) concentration of the analyte were programmed into the kinetic runs in order to check the stability of both the surface and analyte over the kinetic cycles. The SDP051 was injected over the Fcs for 360 seconds, long enough to observe the curvature in association phase.
On the technique in general: In SPR one partner is held on a chip, and binding of the other changes the refractive index at the surface.

Assay [2] has as its target T2, recombinant Cad-11 EC1 human IgG1 …. Put plainly: competition ELISA on coated recombinant human Cad-11 EC1 fusion protein against biotinylated SYN0012 (0.1 µg/ml). The protocol: (§3) The binding of the purified humanized composite variant antibodies (SDP011 to SDP151) to a recombinant Cad-11 EC1 human IgG1 fusion protein was assessed in a competition binding ELISA. A dilution series from 5 μg/ml to 0.0022 μg/ml of the humanized or control (SYN0012/H1M1) antibodies was premixed with a constant concentration of biotinylated murine anti-Cad-11 antibody, SYN0012/H1M1 (0.1 μg/ml, final concentration), before incubating for 1 hour at room temperature on a NUNC-IIMMUNO™ MAXISORP™ 96 well flat bottom microtitre plate (Fisher Cat. No. DIS-971-030J) pre-coated with 0.25 μg/ml recombinant human Cad-11 EC1 (R&D Systems Cat. No. 1790-CA-050) diluted in PBS. The binding of the biotinylated mAb was detected with streptavidin-HRP (Sigma Cat. No. 55512) and tetramethylbenzidine (TMB) substrate (Invitrogen Cat. No. 00-2023).
(§4) All of the humanized anti-Cad-11 antibodies efficiently competed with SYN0012 for binding to the Cad-11 fusion protein (FIGS. 38A to C). […] The curves were used to calculate IC50 values for each antibody and these were normalized to the IC50 of SYN0012, which was included on each ELISA plate so that comparisons between plates could be made (Table 3). The expression levels of each cell line and the calculated isoelectric point (pI) of each antibody are also shown (Table 3).
On the technique in general: An ELISA detects its analyte on a solid surface through an enzyme-linked reagent.

The target of assay [3] is B5. In words: ELISA, BSA-coupled 37-mer cadherin peptide coated at 500 ng/ml, A450. Here is the method: (§5) REACTI-BIND™ plates (ThermoScientific) were coated with 500 ng/ml of the BSA coupled cadherin 37-mer peptide (NE peptide) corresponding to Cadherins-7, -8, -9, -11, -18, -20, and -24 in 0.05% TWEEN® detergent (EMD, product code 9480) in PBS (pH 7.2) (Gibco(Invitrogen), #20012) at 100 μl volume/well for overnight at 4° C. The peptide containing solution was removed from the well and the plate blocked with a 2% bovine serum albumin (BSA) in PBS, 200 μl volume/well, for 2 h at 22° C. The plate was then washed twice with 200 μl/well of PBS-TWEEN® detergent 0.05% at 22° C. and blotted dry. A dilution series from 5 μg/ml to 8 ng/ml in a volume of 100 μl/well of each the humanized anti-Cad-11 antibodies were incubated in the petide coated wells and incubated at 22° C. for 1 hr. Antibody solution was removed from the wells and the plate washed twice with 200 μl/well of 0.05% TWEEN® detergent-PBS at 22° C. and blotted dry. The goat-anti mouse IgG (Pierce #31432) was added to each well to plate at a 1:1000 dilution, 100 μl/well and incubate at 22° C. for 30 min. The secondary antibody solution was removed and the plate washed twice with 200 μl/well of 0.05% TWEEN® detergent-PBS at 22° C. and blotted dry. The reaction was developed by adding 100 μl/well tetramethylbenzidine (TMB) reagent IgG (Pierce #34022, 1 step Turbo TMB-ELISA) to plate and developed at 22° C. for 5 min.

In assay [4] the target is B4. The description is as above. Here is the method:
as §5

In assay [5] the target is T1, recombinant his-tagged human Cad-11 …. Put plainly: SPR, rhCad-11 immobilized, SDP051 as analyte, 2-state reaction model. The protocol:
as §1, §2

Assay [6] deals with T2, recombinant Cad-11 EC1 human IgG1 …. Put plainly: competition ELISA against biotinylated SYN0012/H1M1 (competitor) on coated fusion protein; text says values are normalised to the IC50 of SYN0012. Here is the method: as §3, §4
The relative IC50 was calculated by dividing the value for the test antibody by that of SYN0012. Antibody expression levels given are for static cultures in T flasks. PI are calculated.

Assay [7] concerns the target T1, recombinant his-tagged human Cad-11 …. Put plainly: SPR, rhCad-11 immobilized, SDP051 as analyte, 2-state reaction model; ka1. Here is the method:
as §1, §2

Assay [8] deals with B1. In words: flow cytometry blocking assay: peptide titrated with SDP 051 at 0.5 ug/ml on Cad-11 expressing 431D cells; blocked: binding of SDP051 to cell-surface Cad-11; MFI. Here is the method:
Cells were the stained on ice for 45 minutes with increasing concentration of either the 37-mer Cad-11 peptide or Cad-7, Cad-8, Cad-9, Cad-18, Cad-20, or Cad-24 peptides with […] SDP051. After staining the cells were washed twice with Hanks balanced salt solution (HBSS) containing 1% fetal bovine solution (FBS), resuspended and then stained with a 100 μl of goat anti-mouse IgG-PE (100× dilution) on ice for 30′ protected from light. After staining the cells with the secondary agent, cells were washed twice with HBSS with 1% FBS, resuspended and fixed in 200 μl of 2% formaldehyde in HBSS with 1% FBS and then analyzed with a BD FACSCALIBUR™ machine.
In general terms: A flow cytometer gives signals particle by particle.

The source of these data is patent US20150132305A1 (ADHERON THERAPEUTICS, published 2015).

Changes are numbered by the printed parent chain. In names and notes the source's numbering stands. No end group written: not given here.

Broadly, the koff is a measure of how fast the partners let go of each other. The Kd is a measure of binding affinity in units of concentration. In general, IC50 refers to the concentration needed to halve the response being measured. The kon is the second-order rate constant of association. Consider B1, for which, in assay [1], the koff was 0.0043 s⁻¹. For the same molecule, the “IC50 (read off the curve)” value in assay [2] was around 0.2 µg/mL. Further, the binding result in assay [3] and in assay [4] was “no binding (tested: 5000 ng/ml)” in each case. In addition, the Kd in assay [5] was 0.379 nM. Besides, the IC50 in assay [6] came to 0.99 µg/mL. The kon in assay [7] amounted to 613000 M⁻¹ s⁻¹.
As to B2, the binding result in assay [3] is listed as “no binding (tested: 5000 ng/ml)”. In addition, the IC50 in assay [6] is 0.47 µg/mL.
B3: the binding result in assay [3] is given as “no binding (tested: 5000 ng/ml)”. Also, the IC50 in assay [6] is 0.33 µg/mL.
As for B4, the binding result in assay [8] is listed as “no binding (tested: 3000 ng/ml)”.
Regarding B5, in assay [8], the binding result was “no binding (tested: about 80000 ng/ml)”.
